Source: US20190127462A1 (UNIVERSITY OF TSUKUBA, published 2019)

B1: anti-human DNAM-1 monoclonal antibody No. 2 (antibody, V domains shown)
VH: SQSLSLTCTVTGYSITSDYAWNWIRQFPGNKLEWMGYISYSGTTTYNPSLKSRISITRDTSKNQFFLQLNSVTTEDTATYYCAELSMDYWGQGTSVTVSS
VL: DIVLSQSPAILSVSPGERVSFSCRASQSIGTSIHWYQQRTNGSPRLLIKYASESISGIPSRFSGSGSGTDFTLSINSVESEDIADYYCQQSRSWPLTFGAGTKLELKR
notes: Mouse hybridoma monoclonal antibody
B2: anti-human DNAM-1 monoclonal antibody No. 4 (antibody, V domains shown)
VH: KWGLSEISCKASGYTFTDYNMHWVKQSHGKSLEWIGYIYPYNGGTGYNQKFKSKATLTVDNSSSTAYMELRSLTSEDSAVYYCAGYWYFDVWGAGTTVTVSS
VL: EKVSITCKASQDVGTAVAWYQQKPGQSPKLLIYWASTRHTGVPDRFTGSGSGTDFTLTISNVQSEDLADYFCQQYSSYPWTFGGGTKLEIKR
notes: as for B1
B3: anti-human DNAM-1 monoclonal antibody No. 3 (antibody, V domains shown)
VH: EISCKASGYTFTNYWLGWVKQRPGHGLEWIGDIYPGGGYTNYNEKFKGKATLTADTSSSTAYMQLSSLTSEDSAVYFCANAYYRYKGFAYWGQGTLVTVSA
VL: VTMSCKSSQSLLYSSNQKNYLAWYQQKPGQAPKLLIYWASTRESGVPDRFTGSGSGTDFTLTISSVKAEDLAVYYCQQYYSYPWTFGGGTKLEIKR
notes: as for B1
B4: anti-human DNAM-1 monoclonal antibody No. 1 (antibody, V domains shown)
VH: SQSLSLTCSVTGYSITSGYYWNWIRQFPGNKLEWMGYISYDGSNNYNPSLKNRISITRDTSKNQFFLKLNSVTTEDTATYYCARAYYGNYVGYFDVWGAGTTVTVSS
VL: RVTITCKASQSVSNDVAWYQQKPGQSPKLLIYYASNRYTGVPDRFTGSGYGTDFTFTISTVQAEDLAVYFCQQDYSSPLTFGAGTKLELKR
notes: as for B1

What follows are binders tested against T1, human DNAX accessory molecule-1 (DNAM-1) protein (human, UniProt Q15762 19-336) (assay: flow cytometry on 1x10^5 DNAM-1/BW cells).
T1 construct: whole, on cells; Expressed on BW5147 mouse lymphocyte cells (DNAM-1/BW) or present on human peripheral blood lymphocytes / CD8+ T cells; also called CD226; human DMAM-1 protein
T1 sequence (looked up): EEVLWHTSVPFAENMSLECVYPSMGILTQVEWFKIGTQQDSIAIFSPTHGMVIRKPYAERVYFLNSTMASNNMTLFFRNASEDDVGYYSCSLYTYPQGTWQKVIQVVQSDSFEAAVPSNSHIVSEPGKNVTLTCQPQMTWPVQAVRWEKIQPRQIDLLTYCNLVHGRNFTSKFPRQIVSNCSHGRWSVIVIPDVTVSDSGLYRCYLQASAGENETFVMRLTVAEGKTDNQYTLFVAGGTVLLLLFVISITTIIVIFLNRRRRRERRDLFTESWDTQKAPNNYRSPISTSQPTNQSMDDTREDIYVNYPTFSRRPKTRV
For B1, the “minimum amount required for saturating human DNAM-1 on 1x10^5 DNAM-1/BW cells” value (“minimum amount required” for short) was 50 ng. With B2 the “minimum amount required” value was 100 ng. For B3, the “minimum amount required” value was 100 ng. For B4, the “minimum amount required” value was 30 ng.

These binders were tested against T1, human DNAX accessory molecule-1 … (assay: flow cytometry; 1x10^5 DNAM-1/BW cells pre-saturated with 1000 ng hCD155-Fc (competitor); remaining hCD155-Fc detected).
Experimental: After DNAM-1/BW cells reacted with the hCD155-Fc protein in advance had been reacted with a specific one of the monoclonal antibody No. 1 to No. 6 diluted serially in Test example 6, the hCD155-Fc protein bound to the DNAM-1 protein present on the surfaces of the DNAM-1/BW cells was detected. The detection of the hCD155-Fc protein was conducted using an anti-human IgG antibody. The reaction was made on ice for 30 minutes.
It was also confirmed that, in the range where the concentration of the monoclonal antibody reacted with the DNAM-1/BW cells was low, the reidues of hCD155-Fc protein after the DNAM-1/BW cells had been reacted with the monoclonal antibody No. 3 was smaller than that of hCD155-Fc protein after the DNAM-1/BW cells had been reacted with the monoclonal antibody No. 2. This proves that, in the range where the concentration of the monoclonal antibody reacted with the DNAM-1/BW cells was low, the monoclonal antibody No. 3 had higher activity of inhibiting the interaction between the DNAM-1 protein and the CD155 protein than the monoclonal antibody No. 2. In the range where the concentration of the monoclonal antibody reacted with the DNAM-1/BW cells was high, the difference in the above reactivity between the monoclonal antibody Nos. 2 and 3 was small. The amount of monoclonal antibody No. 3 required for completely inhibiting the interaction between the DNAM-1 protein and the CD155 protein was 300 ng.
B1 was tested, and the “amount required for completely inhibiting the interaction between the DNAM-1 protein and the CD155 protein” value was 300 ng. For B2, the “amount required for completely inhibiting the interaction between the DNAM-1 protein and the CD155 protein” value was 1000 ng. For B3, the “amount required for completely inhibiting the interaction between the DNAM-1 protein and the CD155 protein” value was 300 ng. B4 was tested, and the “amount required for completely inhibiting the interaction between the DNAM-1 protein and the CD155 protein” value was 100 ng.
